Target: T1, Anti-CD28 Fab (SEQ ID NOs: 202, 203)
T1 construct: biotinylated and captured on neutravidin coated plates in the phage ELISA
Assay: phage ELISA, Fab on plate;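 also: crude clonal phage supernatants added to wells pretreated with blocking buffer with or without CD28 antigen, then bound phage read out via HRP-linked anti-M13 antibody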
T1 sequence (VH, as listed by the source, chain 1 of 2): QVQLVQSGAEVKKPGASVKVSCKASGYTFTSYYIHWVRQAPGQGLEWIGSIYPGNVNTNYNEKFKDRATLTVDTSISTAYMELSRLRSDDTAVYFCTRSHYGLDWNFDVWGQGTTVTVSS
T1 sequence (VL, as listed by the source, chain 2 of 2): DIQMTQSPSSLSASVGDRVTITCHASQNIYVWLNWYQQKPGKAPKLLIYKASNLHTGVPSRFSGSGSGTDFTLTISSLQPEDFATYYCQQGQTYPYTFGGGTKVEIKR
Protocol: After panning, phage infected bacteria were plated out and colonies picked into 96 well blocks. Clonal phage was then amplified and separated from bacterial cells via centrifugation.
Clonal phage were harvested as crude supernatants and screened via standard ELISAs. […] Prior to the addition of clonal phage, wells were incubated with blocking buffer and CD28 antigen or blocking buffer alone. Without washing or aspirating, clonal phage supernatants were then added to the wells and incubated for a short time. Wells were then washed followed by detection of bound phage using a horse radish conjugated anti-M13 antibody. Clonal phage of interest were then sent for sequence analysis.

| Binder | Anti-CD28 Fab (SEQ ID NOs: 202, 203) signal |
| --- | --- |
| YCDGHEQQYMEKCL [Phage-723] | 1.14 |
| YCQGHLPQYIEKCL [Phage-721] | 1.14 |
| YCDGHEAEYMWKCL [Phage-727] | 1.13 |
| YCEGHVAEYRAKCL [Phage-720] | 1.15 |
| YCEGHSSLYLEKCL [Phage-732] | 1.11 |
| YCEGHLYEYMWKCL [Phage-725] | 1.13 |
| YCEGHAAAYMGKCL [Phage-722] | 1.14 |
| YCDGHLQMYMMKCL [Phage-724] | 1.14 |
| YCDGHIWPWIEKCL [Phage-731] | 1.11 |
| YCEGHAEQYMKKCL [Phage-728] | 1.12 |
| YCDGHVVEYMSKCL [Phage-729] | 1.12 |
| YCAGHLPQYMHKCL [Phage-730] | 1.11 |

Target: T2, anti-CD28 Fab (SEQ ID NOs: 202, 203)
T2 construct: biotinylated and captured on neutravidin coated plates in the phage ELISA
T2 sequence (VH, as listed by the source, chain 1 of 2): as the sequence (VH, as listed by the source, chain 1 of 2) above
T2 sequence (VL, as listed by the source, chain 2 of 2): as the sequence (VL, as listed by the source, chain 2 of 2) above
Assay: phage ELISA on captured Fab;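 also: ELISA with clonal phage supernatants added to wells preincubated with CD28 antigen or with blocking buffer only, bound phage detected by HRP-conjugated anti-M13 antibody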
Protocol: (§1) Clonal phage were harvested as crude supernatants and screened via standard ELISAs. […] Prior to the addition of clonal phage, wells were incubated with blocking buffer and CD28 antigen or blocking buffer alone. Without washing or aspirating, clonal phage supernatants were then added to the wells and incubated for a short time. Wells were then washed followed by detection of bound phage using a horse radish conjugated anti-M13 antibody.

| Binder | Anti-CD28 Fab (SEQ ID NOs: 202, 203) signal |
| --- | --- |
| YCAGHSEEYMDKCL (on phage, pIII fusion) [Phage-539] | 1.55 |
| YCDGHSQAHMQKCL (on phage, pIII fusion) [Phage-542] | 1.55 |
| YCDGHELQYMAKCL (on phage, pIII fusion) [Phage-515] | 1.6 |
| YCDGHSEVYMSKCL (on phage, pIII fusion) [Phage-540] | 1.55 |
| YCDGHRLEYLEKCL (on phage, pIII fusion) [Phage-516] | 1.6 |
| YCQGHLPQYVEKCL (on phage, pIII fusion) [Phage-534] | 1.57 |
| YCEGHLDQYMTKCL (on phage, pIII fusion) [Phage-578] | 1.47 |
| YCEGHLPLYMDKCL (on phage, pIII fusion) [Phage-512] | 1.6 |
| YCEGHSAAYMQKCL (on phage, pIII fusion) [Phage-513] | 1.6 |
| YCEGHTPVYMPKCL (on phage, pIII fusion) [Phage-585] | 1.46 |
| YCAGHTVENMAKCL (on phage, pIII fusion) [Phage-575] | 1.48 |
| YCDGHSLEYMVKCL (on phage, pIII fusion) [Phage-583] | 1.46 |
| YCDGHSEAYMWKCL (on phage, pIII fusion) [Phage-519] | 1.59 |
| YCDGHSVEYKLKCM (on phage, pIII fusion) [Phage-509] | 1.61 |
| YCAGHNAQYMSKCL (on phage, pIII fusion) [Phage-545] | 1.55 |
| YCEGHRPEYMQKCV (on phage, pIII fusion) [Phage-574] | 1.48 |
| YCAGHTQEYIEKCL (on phage, pIII fusion) [Phage-579] | 1.47 |
| YCDGHLPMYMKKCL (on phage, pIII fusion) [Phage-533] | 1.57 |
| YCDGHAQEYMVKCL (on phage, pIII fusion) [Phage-510] | 1.61 |
| YCAGHDQQYMEKCL (on phage, pIII fusion) [Phage-543] | 1.55 |

| Binder | Anti-CD28 Fab (SEQ ID NOs: 202, 203) signal |
| --- | --- |
| YCEGHTLEYMWKCL (on phage, pIII fusion) [Phage-541] | 1.55 |
| YCDGHLAIYIGKCL (on phage, pIII fusion) [Phage-580] | 1.47 |
| YCDGHLPEYITKCL (on phage, pIII fusion) [Phage-573] | 1.49 |
| YCDGHFLTYMTKCL (on phage, pIII fusion) [Phage-538] | 1.56 |
| YCEGHMPEYLQKCL (on phage, pIII fusion) [Phage-514] | 1.6 |
| YCDGHAQEFIWKCL (on phage, pIII fusion) [Phage-518] | 1.6 |
| YCDGHSVKYMAKCL (on phage, pIII fusion) [Phage-507] | 1.61 |
| YCEGHSLEHIAKCL (on phage, pIII fusion) [Phage-584] | 1.46 |
| YCAGHSPEYMQKCL (on phage, pIII fusion) [Phage-511] | 1.6 |
| YCDGHLPVYMMKCL (on phage, pIII fusion) [Phage-544] | 1.55 |
| YCSGHLPEYMWKCL (on phage, pIII fusion) [Phage-508] | 1.61 |
| YCEGHVLEYRGKCD (on phage, pIII fusion) [Phage-576] | 1.48 |
| YCDGHSPLYMVKCL (on phage, pIII fusion) [Phage-537] | 1.56 |
| YCEGHLDMYVWKCL (on phage, pIII fusion) [Phage-535] | 1.56 |
| YCAGHLDQYIEKCL (on phage, pIII fusion) [Phage-517] | 1.6 |
| YCDGHLLEYMSKCL (on phage, pIII fusion) [Phage-582] | 1.46 |
| YCDGHLEIYMSKCL (on phage, pIII fusion) [Phage-581] | 1.46 |
| YCDGHTSEYMTKCL (on phage, pIII fusion) [Phage-546] | 1.54 |
| YCDGHVAEYRHKCL (on phage, pIII fusion) [Phage-577] | 1.47 |
| YCDGHSQEYMAHCL (on phage, pIII fusion) [Phage-536] | 1.56 |

Target: Anti-CD28 Fab (SEQ ID NOs: 202, 203)
Assay: phage binding ELISA on captured Fab;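 also: clonal phage supernatants added briefly to wells pre-incubated with CD28 antigen or with blocking buffer only, then washed, bound phage read by ELISA using HRP-coupled anti-M13 antibody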
Target sequence in this assay (VH, as listed by the source, chain 1 of 2): as the sequence (VH, as listed by the source, chain 1 of 2) above
Target sequence in this assay (VL, as listed by the source, chain 2 of 2): as the sequence (VL, as listed by the source, chain 2 of 2) above
Protocol: as §1

| Binder | Anti-CD28 Fab (SEQ ID NOs: 202, 203) signal |
| --- | --- |
| YCEGHIEPYMQKCL [Phage-769] | 0.99 |
| YCDGHLAEYIQKCL [Phage-759] | 1.04 |
| YCEGHSSVYLWKCL [Phage-765] | 1 |
| YCDGHKPEYMDKCL [Phage-770] | 0.99 |
| YCEGHLREYMLKCL [Phage-764] | 1.01 |
| YCEGHSWIYIAKCL [Phage-766] | 1 |
| YCEGHRPEYMANCL [Phage-768] | 1 |
| YCDGHLEVYMSKCL [Phage-767] | 1 |
| YCEGHSSAYMAKCL [Phage-804] | 0.9 |
| YCDGHVGAYMWKCL [Phage-771] | 0.99 |
| YCFGHAPEYLLKCL [Phage-763] | 1.01 |
| YCAGHSSEYLQKCL [Phage-760] | 1.03 |
| YCAGHSQVYMWKCL [Phage-761] | 1.02 |
| YCEGHIEQYMRKCL [Phage-762] | 1.01 |

From patent publication US20260274955A1 (JANUX THERAPEUTICS, published 2026)
